This is an account of results in patent publication US20140349405, “RNA-DIRECTED DNA CLEAVAGE AND GENE EDITING BY CAS9 ENZYME FROM NEISSERIA MENINGITIDIS” (WISCONSIN ALUMNI RESEARCH FOUNDATION, published 2014).

Data set [1] concerns the target T1, RNA polymerase sigma70 holoenzyme (Escherichia coli, UniProt P0A7Z4;P0A8V2;P0A8T7;P0A800;P00579 …). Description: in vitro transcription, 168 nt product; 10 mM Mg, 100 mM KCl, 37 C. Particulars: tags: Epicentre, sigma-saturated; chain copies: 2,1,1,1,1.
The target of data set [2] is T1, RNA polymerase sigma70 holoenzyme. Put plainly: in vitro transcription, no transcript. Particulars: tags: Epicentre, sigma-saturated; chain copies: 2,1,1,1,1.

T1 sequence (P0A7Z4 whole entry, chain 1 of 4): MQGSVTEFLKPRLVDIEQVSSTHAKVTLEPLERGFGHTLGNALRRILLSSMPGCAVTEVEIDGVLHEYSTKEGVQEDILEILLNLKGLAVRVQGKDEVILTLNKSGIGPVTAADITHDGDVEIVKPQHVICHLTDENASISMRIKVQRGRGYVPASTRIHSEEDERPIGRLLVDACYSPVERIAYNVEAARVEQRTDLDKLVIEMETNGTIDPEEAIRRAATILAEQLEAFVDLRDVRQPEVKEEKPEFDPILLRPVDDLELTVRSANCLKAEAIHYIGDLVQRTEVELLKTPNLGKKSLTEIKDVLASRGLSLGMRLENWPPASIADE
T1 sequence (P0A8V2 whole entry, chain 2 of 4): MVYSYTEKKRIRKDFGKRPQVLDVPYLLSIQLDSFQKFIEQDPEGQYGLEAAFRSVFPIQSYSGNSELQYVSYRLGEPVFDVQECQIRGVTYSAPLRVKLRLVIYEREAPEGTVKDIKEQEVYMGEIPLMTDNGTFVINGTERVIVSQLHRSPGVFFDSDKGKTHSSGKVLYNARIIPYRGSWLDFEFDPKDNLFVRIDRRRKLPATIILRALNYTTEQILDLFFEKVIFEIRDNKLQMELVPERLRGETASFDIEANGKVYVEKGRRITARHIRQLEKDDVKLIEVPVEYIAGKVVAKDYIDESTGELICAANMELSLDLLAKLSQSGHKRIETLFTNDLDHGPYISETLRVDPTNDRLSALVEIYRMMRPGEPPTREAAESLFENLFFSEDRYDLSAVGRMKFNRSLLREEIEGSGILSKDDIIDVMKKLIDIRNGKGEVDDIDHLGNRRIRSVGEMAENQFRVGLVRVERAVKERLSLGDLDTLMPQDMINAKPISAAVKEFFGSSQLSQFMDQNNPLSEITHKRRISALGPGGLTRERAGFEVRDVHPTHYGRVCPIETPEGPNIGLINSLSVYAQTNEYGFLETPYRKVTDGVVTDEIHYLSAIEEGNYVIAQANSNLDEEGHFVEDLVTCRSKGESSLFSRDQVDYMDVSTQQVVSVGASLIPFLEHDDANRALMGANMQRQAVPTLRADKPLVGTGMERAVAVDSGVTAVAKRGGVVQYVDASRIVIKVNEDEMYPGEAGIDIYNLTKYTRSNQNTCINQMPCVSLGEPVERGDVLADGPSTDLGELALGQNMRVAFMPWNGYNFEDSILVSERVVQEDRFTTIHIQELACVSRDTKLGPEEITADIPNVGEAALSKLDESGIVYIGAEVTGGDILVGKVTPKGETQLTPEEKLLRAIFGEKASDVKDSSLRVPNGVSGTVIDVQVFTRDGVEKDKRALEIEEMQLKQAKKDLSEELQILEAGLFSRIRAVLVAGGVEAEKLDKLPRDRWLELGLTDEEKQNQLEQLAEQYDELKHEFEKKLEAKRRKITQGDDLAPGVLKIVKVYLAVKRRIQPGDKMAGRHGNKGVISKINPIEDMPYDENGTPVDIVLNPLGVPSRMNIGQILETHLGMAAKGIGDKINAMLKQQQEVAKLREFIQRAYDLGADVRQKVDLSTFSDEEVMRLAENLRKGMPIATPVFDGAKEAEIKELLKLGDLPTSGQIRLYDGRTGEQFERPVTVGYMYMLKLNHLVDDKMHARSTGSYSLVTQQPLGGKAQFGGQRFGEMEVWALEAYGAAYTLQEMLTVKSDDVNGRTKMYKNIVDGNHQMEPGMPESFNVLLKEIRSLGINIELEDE
T1 sequence (P0A800 2-91, chain 4 of 4): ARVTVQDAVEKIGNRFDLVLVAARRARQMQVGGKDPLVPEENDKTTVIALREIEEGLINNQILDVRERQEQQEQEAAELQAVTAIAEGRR
T1 sequence (P00579 whole entry, chain 5 of 4): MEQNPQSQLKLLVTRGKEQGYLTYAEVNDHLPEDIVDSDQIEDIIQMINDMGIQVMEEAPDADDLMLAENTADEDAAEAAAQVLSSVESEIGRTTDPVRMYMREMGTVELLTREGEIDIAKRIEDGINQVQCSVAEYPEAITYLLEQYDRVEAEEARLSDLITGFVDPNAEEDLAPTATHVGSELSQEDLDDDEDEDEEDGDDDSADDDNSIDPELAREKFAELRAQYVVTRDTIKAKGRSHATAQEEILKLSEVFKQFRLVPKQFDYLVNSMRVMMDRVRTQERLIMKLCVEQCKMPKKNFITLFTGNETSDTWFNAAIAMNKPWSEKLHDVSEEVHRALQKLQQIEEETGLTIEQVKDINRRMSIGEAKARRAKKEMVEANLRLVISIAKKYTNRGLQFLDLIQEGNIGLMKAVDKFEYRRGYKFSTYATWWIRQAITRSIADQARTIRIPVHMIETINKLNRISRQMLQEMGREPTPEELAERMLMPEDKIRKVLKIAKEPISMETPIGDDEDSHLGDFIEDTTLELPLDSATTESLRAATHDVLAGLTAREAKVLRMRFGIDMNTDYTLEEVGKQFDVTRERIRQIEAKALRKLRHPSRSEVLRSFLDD

B1: Neisseria CRISPR repeat promoter wt (dsDNA)
DNA 1: GTTGTAGCTCCCTTTCTCATTTCGCAGTGCTACAAT
DNA 2: ATTGTAGCACTGCGAAATGAGAAAGGGAGCTACAAC
Regarding B1, the binding result in data set [1] was “binds”.

B2: Neisseria CRISPR repeat promoter mut (dsDNA)
DNA 1: GTTGTAGCTCCCTTTCTCATTTCGCAGTGCCCCAAT
DNA 2: ATTGGGGCACTGCGAAATGAGAAAGGGAGCTACAAC
modifications: [31-32]
Consider B2, for which the binding result in data set [2] was “no binding”.
